Measured values reported in patent US20060286117A1, “Neuronally expressed stem cell factor modulates angiogenesis and neural stem cell migration to areas of brain injury” (priority 2003, published 2006).
Entries after “also recorded” stand apart in the source; their conditions may differ.

What was measured:
[1] = test system: glioma cells; assay: Glioma cell proliferation in vitro with SCF; assay type: cell-based, human; conditions: even high concentrations of SCF
[2] = test system: SCID mice; assay: In vivo angiogenesis assay, matrigel plug with rmSCF (Example 3); set-up: species or system mouse; conditions: rmSCF 50 ng/ml, subcutaneous, 7 days, vs PBS control
Protocol: Recombinant mouse SCF (rmSCF) was used at 50 ng/ml in an in vivo angiogenesis assay. The matrigel plug containing SCF or PBS control was placed subcutaneously in SCID mice for 7 days, and the blood vessel formation within the gel was examined by H&E staining. […] In the higher magnification figure on the right side, the red blood cells inside of the newly formed vessel are indicated by an arrow.

[3] = test system: c-Kit, MAPK and PI3K/Akt pathways in BMVEC-b; assay: Immunoblot of SCF/c-Kit signal transduction, BMVEC-b; assay type: cell-based, bovine
Protocol: (§1) Confluent-grown ECs were treated with 50 ng/ml of SCF for 5, 10, 15, and 30 min after 24 hr of serum starvation. The ECs were collected with RIPA lysis buffer (Upstate, Charlottesville, Va.) containing 50 mM NaF, 1 mM Na3VO4, […], and Protease Inhibitor Cocktail (Roche). The antibodies were purchased from Cell Signaling Technology, Inc. (Beverly, Mass.) or as mentioned otherwise. All the primary antibodies were used in a 1:1000 dilution except for the anti-SCF antibody, which was used in a 1:2000 dilution. The primary antibodies were anti-phospho-c-Kit, anti-phospho-MEK1/2 and anti-MEK1/2, anti-phospho-p44/42 MAPK and anti-p44/42 MAPK, anti-phospho-SAPK/JNK and anti-SAPK/JNK, anti-phospho-p38 MAPK and anti-p38 MAPK, anti-phospho-Akt and anti-Akt, anti-phospho-mTOR and anti-mTOR, anti-phospho-4E-BP1 and anti-4E-BP1, anti-SCF and anti-VEGF (Chemicon, Temecula, Calif.), and anti-β-tubulin (Sigma). Re-blotting was done after membranes were stripped by re-blot kit (Chemicon). Tie2 detection in Matrigel plugs from the in vivo Matrigel assay was carried out by immunoprecipitation and immunoblotting. The gel plugs were carefully separated from muscle and skin and homogenized with RIPA lysis buffer. The resulting total tissue lysates ([…]) were immunoprecipitated with Tie2 antibody (Santa Cruz Biotechnology, Inc., Santa Cruz, Calif.) and then analyzed by immunoblot with Tie2 antibody (Zadeh et al. 2004 Am J Pathol 162:467-476).

[4] = test system: HBMEC; assay: EC proliferation, HBMEC exposed to SCF; assay type: cell-based, human
[5] = test system: endogenous NSPCs; assay: In vivo progenitor cell migration, BrdU labeling and intracerebral rmSCF injection; set-up: species or system mouse; conditions: vs contralateral side and PBS-injected animals, day 7
[6] = test system: BMVEC-b; assay: Matrigel tube formation (EC differentiation) assay, BMVEC-b; assay type: cell-based, bovine; conditions: SCF 20 ng/ml
Protocol: After the Matrigel (BD Biosciences) formed a solid gel in 24-well plates, serum-starved BMVEC-b cells were seeded on the gel surface at 10^5 cells per well and cultured in treatment medium in the presence or absence of SCF (20 ng/ml). Primary HBMEC were placed on the gel directly at 24×10^3 per well. Tubular formation was observed using an inverted phase contrast microscope, and images were captured at 4 and 18 hr after cell seeding. Each experiment was repeated two or three times.

[7] = test system: SCID mice; assay: In vivo angiogenesis assay, subcutaneous Matrigel plugs with SCF or β-FGF; set-up: species or system mouse; conditions: subcutaneous Matrigel in adult SCID mice, fourteen days after injection
Protocol: as §1
All adult mice (6-8 weeks of age) were from NCI-Fredrick, and the animal experiments were conducted on an animal experimentation protocol approved by the NCI's animal protection committee (the “ACUC”). […]

[8] = test system: HMVEC-d; assay: Thymidine incorporation in HMVEC-d exposed to SCF; assay type: cell-based, human; conditions: basal medium, 48 hr
Protocol: After ECs (3×10^3/well) were adhered to 96-well gelatin-coated plates (BD Discovery Labware, Bedford, Mass.), the EC growth medium was replaced by SCF ([…]) (R&D Systems, Minneapolis, Minn.) suspended in treatment medium (basal medium with 0.1% BSA) for an additional 48 hr (HUVEC and HMVEC-d) or 72 hr (BMVEC-b) with renewal of medium at 24 hr intervals. ECs were cultured for 4 hr in 0.25 μCi of [^3H]thymidine (Amersham Pharmacia Biotech, Piscataway, N.J.) at the end. High molecular mass [^3H]-radioactivity was precipitated and counted.

[9] = SCF 50 ng/ml after serum starvation

B1: SCF: Stem cell factor protein (R&D Systems), ligand of the c-Kit receptor (protein)
chain: KEICGNPVTDNVKDITKLVANLPNDYMITLNYVAGMDVLPSHCWLRDMVIQLSLSLTTLLDKFSNISEGLSNYSIIDKLGKIVDDLVLCMEENAPKNIKESPKRPETRSFTPEEFFSIFNRSIDAFKDFMVASDTSDCVLSSTLGPEKDSRVSVTKPFMLPPVA
[1]
  glioma cell proliferation: failed to induce proliferation
[2]
  blood vessel formation within the matrigel plug (H&E): stimulates angiogenesis
[3]; SCF 50 ng/ml
  duration of p38 MAPK activation: over 30 min
  phosphorylation of 4E-BP1: increased phosphorylation of 4E-BP1
  phosphorylation of Akt: significantly enhanced
  phosphorylation of MEK1/2: dramatically increased
  phosphorylation of p44/42 MAPK: dramatically increased
  time of SAPK/JNK activation following SCF exposure: 10 to 15 min
[3]; [9]
  duration of c-Kit auto-tyrosine-phosphorylation: 30 min
  time of peak c-Kit auto-tyrosine-phosphorylation: 10 to 15 min
[4]; SCF from 0.1 to 10 ng per ml
  HBMEC proliferative response: dose-dependent growth
[4]; without the addition of other cytokines such as VEGF
  EC growth and survival with SCF alone: sufficient to sustain human brain microvascular EC and other EC cell growth and survival
[5]
  BrdU-positive cells in the SCF-injected area: Significantly more BrdU labeled cells
[6]
  time to mature appearing capillary-like structures: ≤ 18 h
  time to migration in Matrigel: ≤ 4 h
[7]
  Tie2 protein in Matrigel plug: high Tie2 expression
  angiogenesis in Matrigel plug (H&E, vWF-positive vessels): high density of blood vessels; also recorded: induced substantial angiogenesis
[8]
  proliferation (thymidine incorporation): stimulated proliferation in all three primary ECs in a dose-dependent manner
